In one test the target is C. difficile toxin A (Clostridium difficile, UniProt P16154 1-2710). Nature of the test: cell-based or functional assay.
The target in test [1] is T1, genetically modified and chemically inactivated C. difficile toxoid A (Clostridium difficile, UniProt P16154 2-2710).
T1 construct: also called TxdA; the toxoid
The test can be described thus: ITC. In general terms: Isothermal titration calorimetry measures the heat released or taken up as one component is titrated into another.

This note sets out measurements from patent publication US20230218735A1 (Pfizer, published 2023).

As a reminder, the Kd is a measure of binding affinity in units of concentration. Low readings indicate a tighter complex, high ones a looser complex.

B1: hCDIFA-28 (antibody, V domains shown)
VH: QVQLVQSGAQVKKPGSSVKVSCKASGYAFISYGITWVRQAPGQGLEWMGWISAYNGDTNYAQKFQGRVTMTTDTSTNTAYMELRSLRSDDTAVYYCARALTRVAVALPHPYWGQGTLVTVSS
VL: not shown
B1: the “EC50 TcdA [RLU], toxin neutralization assay (TNA) on IMR90 cells” value (shortened to “EC50 TcdA [RLU]”) with C. difficile toxin A was 25800 RLU.

B2: hCDIFA-18 (antibody, V domains shown)
VH: QVQLVQSGAEVKKPGASVKVSCKASGYTFTSYAMHWVRQAPGQRLEWMGWINAGNGNTKYSQEFQGRVTITRDTSASTAYMELSSLRSEDMAVYYCARAHLPGYCSSTSCYIMYVWGKGTTVTVSS
VL: not shown
As for B2, in the test with C. difficile toxin A, the “EC50 TcdA [RLU]” value was 1330 RLU.

B3: hCDIFA-48 (antibody, V domains shown)
VH: QVQLVQSGAEVKKPGASVKVSCKASGYTFTTYAMHWVRQAPGHRLEWMGWINPVNGNSKHSQNFQGRVTITRDTSASTVYMELSSLRSEDTAVYYCARDTSSGVILANNFDYWGQGTLVTVSS
VL: DIVMTQSPATLSLSPGERATLSCRASQSVDSYLTWYQQKPGQAPRLLIYDSSNRATGIPARFSGSGSGTDFTLTISSLEPEDFAVYYCHQRSNWPNTFGQGTKVEIKR
As for B3, in test [1], the “DH” value was -7.2 kcal/mol, the Kd came to 87 nM and the Stoichiometry is 0.77.

B4: hCDIFA-26 (antibody, V domains shown)
VH: EVQLLESGAEVKKPGESLRISCNCSGYSFTSYWIGWVRQMPGEGLEWMGLIQPGGDSYPRYSPSFQGQVTISADKSISTAYLQWRSLKASDTAMYYCARRGFDHWGQGTLVTVSS
VL: NFMLTQPPSASGAPGQRVTISCSGSSSNIGSNTVNWYQQLPGTAPKLLIYSNIQRPSGVPDRFSGSKSGTSASLAISGLQSDDEADYYCSAWDDSLNGYVFGTGTKVTVLG
Regarding B4, in test [1], the “DH” value is -9.1 kcal/mol, the Kd was 8 nM and the Stoichiometry is 1.98.

B5: hCDIFA-13 (antibody, V domains shown)
VH: QVQLVQSGAEVKKPGASVTVSCRTSGYTFTNDYVHWVRQAPGQGLEWVGLINPSGGNTVYAQSFQGRVTMTRDTSTSTVYMELSSLRSEDTAVYYCARVVHDYGKFDPWGQGTPVTVSS
VL: SYELTQPASVSGSPRQSITISCTGTSSDVGNYNLVSWYQQYPGKAPRLIIFEVRQRPSGVSNRFSGSKSGNTASLTISGLQAADEADYYCCSYAGRSIWVFGGGTKLTVLG
Take B5: the “EC50 TcdA [RLU]” value with C. difficile toxin A is 26300 RLU.

B6: hCDIFA-34 (antibody, V domains shown)
VH: QVQLVESGGDLIQPGESLRLSCVASGFTVGSHYMTWVRQAPGKGLEWVSTIYSGGTTKYADSVKGRFTISRDNSKNTLFLQMNSLRTEDTAVYFCARGSAFSSSWWLVDFWGQGTLVTVSS
VL: SYELTQPPSVSVAPGKTARITCEDNYVGGNNVHWYQQKPGQAPVLVVSDDNARPSGIPERVSGSKSGNTATLIINRVEVGDEADFYCQVWDSSRDRVLFGGGTKLTVLG
Regarding B6, the “EC50 TcdA [RLU]” value in the test with C. difficile toxin A was 247 RLU.

B7: hCDIFA-23 (antibody, V domains shown)
VH: QVQLVQSGGGVVQPGRSLRLSCAASGFTFSQYSIHWVRQAPGKGLEWVAVMSYDGRNKYYADSVKGRFTISGDNSRNTLYVQMNSLRAEDTAIYYCARDLIKAAMVPAFDIWGQGTMVTVSS
VL: TALTQPRSVSGSPGQSVTISCTGTNSDVADYNYVSWYQHHPGKAPKLMIYDVTKRPSGVPDRFSGSKSGNTASLTISGLQAEDEADYYCCSYAARYTFGGGTKLTVLG
B7: the “EC50 TcdA [RLU]” value in the test with C. difficile toxin A is 136 RLU.

B8: hCDIFA-14 (antibody, V domains shown)
VH: EVQLVQSGAEVKKPGSSVKVSCKASGGTFRSYAISWVRQAPGQGLEWMGGFIPIPGIRNYAQKFQGRLTISADESTSTGYMELSSLTSEDTAVYYCARGLGRVSHYFYYMDVWGKGTTVTVSS
VL: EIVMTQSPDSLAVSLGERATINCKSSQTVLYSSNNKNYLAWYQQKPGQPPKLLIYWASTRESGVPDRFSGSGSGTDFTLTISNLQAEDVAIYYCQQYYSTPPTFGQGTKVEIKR
B8: in the test with C. difficile toxin A, the “EC50 TcdA [RLU]” value was found to be 19800 RLU.

B9: hCDIFA-2 (antibody, V domains shown)
VH: QVQLVESGGGLVQPGGSLRLSCAASGFTFSSYAMSWVRQAPGKGPEWVSNIIGSGGSTYFTDSVKGRFTISRDNSKNTVYLQMNSLRAEDTAVYYCAKEGCRGYDSGNYFAPKMFCLWGQGTLVTVSS
VL: NFMLTQPASVSGSPGQSITISCTGTSSDIGAYNYVSWYQQHPGTAPKLMIYEVSHRPSGVSNRFSGSKSGDTASLTISGLQAEDEADYYCSSYTTSITYVFGTGTKLTVLG
Take B9: in the test with C. difficile toxin A, the “EC50 TcdA [RLU]” value is roughly 38 RLU.

B10: hCDIFA-39 (antibody, V domains shown)
VH: QVQLQESGPGLVKPSETLSLTCTLSGGSISSDNYYWGWVRQPPGKGLEWIGSIYYSGSTYYNPSLKSRVFISVDMSKNQFSLKLSSVTAADTAVYYCARHTQGLGILRYFDWWTRPFDYWGQGTLVTVSS
VL: DIQMTQSPSSLSASVGDRVTITCRASQNINTYLSWYRQKPGKAPELLIYAASNLQSGVPSRFSGSGSGTDFTLTIHSLQPEDFATYYCQQSYTTLTFGGGTKVEIKR
Consider B10, for which the “EC50 TcdA [RLU]” value with C. difficile toxin A was 400 RLU.

B11: hCDIFA-3 (antibody, V domains shown)
VH: EVQLVESGGGVVQPGRSLRLSCAASGFTFSSYAMHWVRQAPGKGLEWVAVISKDGDNKYYTDPLKGRFTISRDNSKNTLYLQMISLRGEDTAVYYCARDLNIWSGYYLRTINYYMDVWGKGTTVTVSS
VL: DIVMTQSPSFLSASVGDRVTITCRASQGIRNDLGWYQQKPGKAPKLLIYAASTLQSGVPSRFSGSGSGTEFTLTISSLQPEDFATYYCQQPGSHPPFGGGAKLEIKR
Consider B11, for which, in the test with C. difficile toxin A, the “EC50 TcdA [RLU]” value worked out at 199000 RLU.

B12: hCDIFA-20 (antibody, V domains shown)
VH: EVQLVQSGAEVRIPGASVKVSCKASGFTFNDYYIHWVRQAPGQGLEWMGWINAHNGVTSYAQNFQDRVTMTRDTSITTAYMDLSRLRSDDTAVYYCARDCSTSSCFDHWGQGSLVTVSS
VL: SYELTQPPSLSVAPGKTAKITCGGNNIGSKGVHWYQQRPGQAPVLVIYYNADRPSGIPERFSGSNSGNTATLTISRVEAGDEADYFCQVWDGDSAHRVFGGGTKLTVLG
As for B12, in the test with C. difficile toxin A, the “EC50 TcdA [RLU]” value was found to be 3200 RLU.

B13: hCDIFA-29 (antibody, V domains shown)
VH: EVQLLESGAEVKKPGASIRVSCKASGHSFTDSFTDYYFHWVRQAPGQGLEWMGMINPSVGSTNYAQKFQGRVTLTRDTSTHTVYMELSSLRSEDTAVYFCARDPWFCSRGTSCYYFGLWGQGTLVTVSS
VL: DIQLTQSPSSLSASVGDSVTITCRASQSISTYLNWYQQKPGKAPKLLIYDASSLLSGVPSRFSGGGSGTDFTLTISSLQPEDFATYYCQQSDISPPVFGRGTKVEIKR
With B13, in test [1], the “DH” value was -15.6 kcal/mol, the Kd came out at 74 nM and the Stoichiometry amounted to 9.2.

B14: hCDIFA-12 (antibody, V domains shown)
VH: QVQLVQSGAEVKKPGASVKVSCKASGYTFSDSYMHWVRQAPGQGLEWMGRINPNSGGTNYAQKFQGRVTMTRDTSIKTVYMELSRLRSDDGAIYYCARGMGRTTTGLFDLWGQGTLVTVSS
VL: DIVMTQSPATLSLSPGERATLSCKANESVGSYLVWYQQKFGQAPRLLIYDASNRATGIPARFSGSGSGTDFTLTISSLEPEDFAVYYCQQRSNWPPTFGGGTKVDIKR
Consider B14, for which the “EC50 TcdA [RLU]” value with C. difficile toxin A was roughly 115 RLU.

B15: hCDIFA-16 (antibody, V domains shown)
VH: QVQLQESGPGLVKPSETLSLTCTVSGDSISDYYWSWIRQPPGRGLEWIGYIYYSGSTNYNPSLKSRLTISVDTSKNQFSLNLSSVTAADTAVYYCARSMGHYDFWNTYFPCFDPWGQGTLVTVSS
VL: EIVMTQSPGTLSLSPGERATLSCRASQSVSSGYLAWYQQKPGQAPRLLIYGASSRATGIPDRFRGSGSGTDFTLTISRLEPEDFAVYYCQQYGSSPLTFGGGTKLEIKR
Take B15: the “EC50 TcdA [RLU]” value in the test with C. difficile toxin A came to 298 RLU.

B16: hCDIFA-22 (antibody, V domains shown)
VH: QVQLVQSGGGLVQPGGSLRLSCSASGFTFSSYAMHWVRQAPGKGLEYVSAISSNGGSTYYADSVKGRFTISRDNSKNTLYLQMSSLRAEDTAVYYCVRAAAGNWFDPWGQGTLVTVSS
VL: AIRMTQSPSSVSASVGDRVTITCRASQGISSWLAWYQQKPGKAPKLLIYAASSLQSGVPSRFSGSGSGTDFTLTISSLQPEDFATYYCQQANSFPLTFGGGTKVDIKR
Regarding B16, the “EC50 TcdA [RLU]” value in the test with C. difficile toxin A was roughly 16 RLU.

B17: hCDIFA-38 (antibody, V domains shown)
VH: QVQLVESGPALVKPTQTLTLTCTFSGFSLSSIGMCVSWIRQPPGKALEWLARIDWDDSKYYSPSLQARLAISKDTSKNQVVLTMTNVDPMDAGTYYCARTSATLTGPSRVFDYWGQGSLVTVSS
VL: DVVMTQSPATLSVSPGERATLSCRASQSVRFNLAWYQQKPGQAPRLLISGASTRATGIPARFSGSGSGTEFTLTISSLQSEDFAVYYCQQYNNWPPLTFGGGTKVEIKR
Take B17: the “EC50 TcdA [RLU]” value in the test with C. difficile toxin A turned out to be 10500 RLU.

B18: hCDIFA-33 (antibody, V domains shown)
VH: QVQLVQSGGGLVQPGGSLRLSCVASGFTFSSYAMTWVRQAPGMGLEWVSTISLSGSTIYYADSVKGRFTISRDNPKNTLYLQMNSLRAEDTAVYYCAEGQGAFDFWGQGTMVTVSS
VL: NFMLTQPPSASGTPGQRVTISCSGSTSNIGGNTVNWYQQLPGTAPKLLIYSNIQRPSGVPDRFSGSKSGTSASLAIRGLRSEDEADYYCSTWDDSRKGVVFGGGTKLTVLG
Take B18: in test [1], the “DH” value was -3 kcal/mol, binding was characterised by a dissociation constant (Kd) of 31 nM and the Stoichiometry is 0.83.

B19: hCDIFA-30 (antibody, V domains shown)
VH: EVQLVESGAEVKRPGASVKVSCRTSAYAFTNYFMHWVRQAPGQGLEWVAVINLSGGNTNYAQSFQGRVNMTRDTSTSTVYMELSSLRSEDTAVYFCAIGGIWFGEYPNWFDPWGQGTLVTVSS
VL: NFMLTQPPSVSAAPGRKVTVSCSGSSSNIGNNYVSWYQQFPGTAPKLLIYDNNKRHSGIPARFSGSKSGTSATLGITGLQTGDEADYYCATWDSSLKYVVFGGGTKLTVLG
B19: the “EC50 TcdA [RLU]” value in the test with C. difficile toxin A came to 1480 RLU.

B20: hCDIFA-36 (antibody, V domains shown)
VH: QVQLVQSGGGLVQPGRSLRLSCAASGFAFDDYALHWVRQVPGKGLEWVSGISWNSDSIAYADSVKGRFTISRDNAKNSLYLQMNGLRAEDTALYYCAKDRTIASAGIPDEFQHWGQGTLVTVSS
VL: DIVMTQSPATLSVSPGERATLSCRASQSVSYKVAWYQQKPGQAPRLLIYGASTRDTGIPARFSGSGSGTDFTLTISSLQSEDSAVYYCQQYSNWPTTFGQGTKVEIKR
Turning to B20, the “EC50 TcdA [RLU]” value with C. difficile toxin A is 426000 RLU.
